Data: patent publication US20190284299A1

Experiments:
CD20 on Raji cells = CD20 on Raji cells (UniProt P11836); assay: flow cytometry on Raji cells, as in Example 8
[1] = biological target: CD3 on Jurkat cells (Homo sapiens (Human)) (UniProt P07766); assay: flow cytometry on Jurkat cells, as in Example 8
[2] = biological target: CD3 on Jurkat cells (Homo sapiens (Human)) (UniProt P07766); assay: flow cytometry on Jurkat cells, as in Example 8; remark: listed apart in the source
[3] = biological target: CD3 on Jurkat cells (Homo sapiens (Human)) (UniProt P07766); assay: flow cytometry on Jurkat cells, as in Example 8; remark: listed apart in the source
[4] = biological target: CD3 on Jurkat cells (Homo sapiens (Human)) (UniProt P07766); assay: flow cytometry on Jurkat cells, 5 nM, anti-human IgG-FITC
HER2 on SK-BR-3 cells = HER2 on SK-BR-3 cells (UniProt P04626); assay: flow cytometry on SK-BR-3 cells, 0.5 nM, anti-human IgG-FITC

CD3 on Jurkat cells (Homo sapiens (Human)), sequence (P07766 23-207 limits assumed, form in doubt, chain 1 of 3): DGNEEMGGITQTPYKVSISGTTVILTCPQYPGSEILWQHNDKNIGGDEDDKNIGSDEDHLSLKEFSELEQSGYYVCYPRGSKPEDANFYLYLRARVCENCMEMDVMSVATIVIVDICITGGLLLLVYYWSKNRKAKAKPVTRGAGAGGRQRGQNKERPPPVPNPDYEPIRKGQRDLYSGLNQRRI
CD3 on Jurkat cells (Homo sapiens (Human)), sequence (delta, as listed by the source limits assumed, form in doubt, chain 2 of 3): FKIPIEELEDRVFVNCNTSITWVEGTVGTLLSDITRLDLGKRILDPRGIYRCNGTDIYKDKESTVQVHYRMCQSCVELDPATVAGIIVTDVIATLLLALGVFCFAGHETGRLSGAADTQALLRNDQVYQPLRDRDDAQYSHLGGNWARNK
CD3 on Jurkat cells (Homo sapiens (Human)), sequence (gamma, as listed by the source limits assumed, form in doubt, chain 3 of 3): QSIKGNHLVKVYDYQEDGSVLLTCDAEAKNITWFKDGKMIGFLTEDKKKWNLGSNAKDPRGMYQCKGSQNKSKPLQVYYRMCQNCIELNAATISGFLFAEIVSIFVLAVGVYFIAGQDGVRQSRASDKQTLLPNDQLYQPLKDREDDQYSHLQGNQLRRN
CD20 on Raji cells, sequence (P11836 whole entry): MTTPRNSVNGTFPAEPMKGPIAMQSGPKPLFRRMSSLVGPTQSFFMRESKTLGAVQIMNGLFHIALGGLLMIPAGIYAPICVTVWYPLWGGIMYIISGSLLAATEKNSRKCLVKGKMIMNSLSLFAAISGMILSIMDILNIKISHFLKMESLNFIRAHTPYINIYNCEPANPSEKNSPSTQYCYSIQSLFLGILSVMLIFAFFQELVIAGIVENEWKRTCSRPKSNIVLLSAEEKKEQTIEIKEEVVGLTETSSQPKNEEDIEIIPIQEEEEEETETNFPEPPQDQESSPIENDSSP

MFI (CD20 on Raji cells): 2.77
MFI [1]: 3.34
MFI [2]: 2.75
MFI [3]: 2.7
MFI [4]: 3.16
Mean Fluorescence Intensity (MFI) (HER2 on SK-BR-3 cells): 2.88
Substance: isotype control (human immunoglobulin, Jiangxi Boya Bio-pharmaceutical, Approval No.S19993012) (antibody)
